Consider three molecules from patent EP4248993A1 (Charité - Universitätsmedizin Berlin, dated 2023).

Assay [1] addresses MERS-CoV RBD Twin-Strep His (wild type, G372-L588) (MERS-CoV). As to the kind of experiment: BLI, RBD Twin-Strep His on anti-Penta-His biosensor, global 1:1 fit.
For assay [2] the target is unchanged. As to the kind of experiment: ELISA (Figure 6A). On the technique in general: ELISA stands for enzyme-linked immunosorbent assay.
Assay [3] shares this target. Briefly: BLI, RBD Twin-Strep His on anti-Penta-His biosensor, global 1:1 fit. This is another data set of the same source. A general note: In BLI a coated tip is dipped into the sample, and binding shifts an interference pattern.

For orientation: Kd means the equilibrium constant for the complex coming apart. A high value points to weaker binding.

B1: recombinant rabbit DPP4 with C-terminal 6xHis-tag (rbDPP4-His) (receptor)
chain: NKGNHEYLHRQEDNILLFNAEYGNSSLFLANITFDEFGHSITDYSVSPDRLFLLLEYNYVKQWRHSYTASYDIYDLNKRQLITEERIPNNTQWITWAPEGHRLAYVWNNDIYVKLEPNLPSQRITWTGKADVIYNGITDWVYEEEVFSAYSALWWSPNGTFLAYAQFNDTGVPLIEYSFYSDEALQYPKTVRIPYPKAGAVNPTVRFFVVNTDSLSSITNATSVQITAPASMLIGDHYLCDVTWVTHERISLQWLRRIQNYSVMDICDYDRSSGRWNCLVARQHIEMSTTGWVGRFRPAEPHFTSDGNSFYKIMSNEEGYKHICYSLIDNQSCTFITRGAWEVIGIEALTSDYLYYISNEYKGMPGGRNLYKIQLTDHTKVTCLSCELKPERCQYYSVSFGKGAKYYQLRCSGPGLPLYTLHSSVNDQELRVLEDNSALDEMLQDVQMPSKTLDFIILNETKFWYQMVLPPHFDKSKKYPLLLEVYAGPCSQRADAIFRLNWATYLASTENIIVASFDGRGSGYQGDKIMHAINRRLGTLEVEDQIEAARQFSKMGFVDNERIAIWGWSYGGYVTSMVLGSGSGVFKCGIAVAPVSRWEYYDSIYTERYMGLPTPEDNLDHYRNSTVMSRAENFKQVEYLLIHGTADDNVHFQQSAQISKALVDAGVDFQAMWYTDEDHGIDSSTAHQHIYTHMSHFIKQCFSLHHHHHH
For the molecule B1, binding in assay [1] was put at a Kd of 34.3 nM.

B2: recombinant mouse DPP4 (mDPP4) (receptor)
chain: SKDEAAADSRRTYSLADYLKSTFRVKSYSLWWVSDFEYLYKQENNILLLNAEHGNSSIFLENSTFESFGYHSVSPDRLFVLLEYNYVKQWRHSYTASYNIYDVNKRQLITEEKIPNNTQWITWSPEGHKLAYVWKNDIYVKVEPHLPSHRITSTGEENVIYNGITDWVYEEEVFGAYSALWWSPNNTFLAYAQFNDTGVPLIEYSFYSDESLQYPKTVWIPYPKAGAVNPTVKFFIVNIDSLSSSSSAAPIQIPAPASVARGDHYLCDVVWATEERISLQWLRRIQNYSVMAICDYDKINLTWNCPSEQQHVEMSTTGWVGRFRPAEPHFTSDGSSFYKIISDKDGYKHICHFPKDKKDCTFITKGAWEVISIEALTSDYLYYISNQYKEMPGGRNLYKIQLTDHTNVKCLSCDLNPERCQYYAVSFSKEAKYYQLGCWGPGLPLYTLHRSTDHKELRVLEDNSALDRMLQDVQMPSKKLDFIVLNETRFWYQMILPPHFDKSKKYPLLLDVYAGPCSQKADASFRLNWATYLASTENIIVASFDGRGSGYQGDKIMHAINRRLGTLEVEDQIEAARQFVKMGFVDSKRVAIWGWSYGGYVTSMVLGSGSGVFKCGIAVAPVSRWEYYDSVYTERYMGLPIPEDNLDHYRNSTVMSRAEHFKQVEYLLIHGTADDNVHFQQSAQISKALVDAGVDFQAMWYTDEDHGIASSTAHQHIYSHMSHFLQQCFSLH
With B2, the binding result in assay [2] was “no binding”.

B3: recombinant human DPP4 with N-terminal 8xHis-tag (hDPP4-N'His) (receptor)
chain: HHHHHHHHGGGSGGGSGGGSDSRKTYTLTDYLKNTYRLKLYSLRWISDHEYLYKQENNILVFNAEYGNSSVFLENSTFDEFGHSINDYSISPDGQFILLEYNYVKQWRHSYTASYDIYDLNKRQLITEERIPNNTQWVTWSPVGHKLAYVWNNDIYVKIEPNLPSYRITWTGKEDIIYNGITDWVYEEEVFSAYSALWWSPNGTFLAYAQFNDTEVPLIEYSFYSDESLQYPKTVRVPYPKAGAVNPTVKFFVVNTDSLSSVTNATSIQITAPASMLIGDHYLCDVTWATQERISLQWLRRIQNYSVMDICDYDESSGRWNCLVARQHIEMSTTGWVGRFRPSEPHFTLDGNSFYKIISNEEGYRHICYFQIDKKDCTFITKGTWEVIGIEALTSDYLYYISNEYKGMPGGRNLYKIQLSDYTKVTCLSCELNPERCQYYSVSFSKEAKYYQLRCSGPGLPLYTLHSSVNDKGLRVLEDNSALDKMLQNVQMPSKKLDFIILNETKFWYQMILPPHFDKSKKYPLLLDVYAGPCSQKADTVFRLNWATYLASTENIIVASFDGRGSGYQGDKIMHAINRRLGTFEVEDQIEAARQFSKMGFVDNKRIAIWGWSYGGYVTSMVLGSGSGVFKCGIAVAPVSRWEYYDSVYTERYMGLPTPEDNLDHYRNSTVMSRAENFKQVEYLLIHGTADDNVHFQQSAQISKALVDVGVDFQAMWYTDEDHGIASSTAHQHIYTHMSHFIKQCFSLP
notes: range 38-766
B3 displayed a Kd in assay [3] of 7.8 nM.
